In patent US20200157537, “Modulating RNA Interactions with Polycomb Repressive Complex 1 (PRC1)” (The General Hospital Corporation, published 2020):

How the values were obtained:
CBX7 [1] = molecular target: T1, CBX7 (Mus musculus, UniProt Q8VDS3 Q8VDS3:1-158); experiment: EMSA; low micromolar range, value only in figure; Hill coefficient suggests cooperativity, 2-3 sites; yeast tRNA, Mg2+, on ice; competed by cold Dcaf12l1; details: tags: C-terminal Flag-HA; baculovirus Sf9, anti-FLAG M2 purified; label: radiolabelled
T1 sequence (Q8VDS3 whole entry, one chain of several): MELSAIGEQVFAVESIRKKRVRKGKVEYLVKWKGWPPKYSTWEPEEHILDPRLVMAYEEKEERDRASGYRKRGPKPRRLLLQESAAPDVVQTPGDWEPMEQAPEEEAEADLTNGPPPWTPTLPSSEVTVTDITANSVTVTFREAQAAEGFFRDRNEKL
Procedure: (§1) RNA-EMSA assays with CBX7 protein were performed as follows. Labeled RNAs were produced with MEGAscript® T7 Transcription Kit (Life Technologies) and purified from 6% acrylamide TBE-urea gels. Labeled RNAs were prefolded in buffer TE+300 mM NaCl by incubating for 2 min at 95° C., followed by 20 min incubation on ice. Binding reactions were assembled with 20 μl of binding mix (13 mM Tris pH 8.0, 0.2 mM EDTA, 68.8 mM NaCl, 20% Glycerol, 0.2 mg/ml Yeast tRNA, 4 mM DTT, 4 μl 2500 cpm/μl RNA probe). LNA oligonucleotides were added to binding mix at final concentration of 8 μM and samples were pre-incubated on ice for 10 min. After pre-incubation, binding mix samples were combined with 60 μl of purified protein in dialysis buffer (50 mM Tris pH 7.4, 5 mM MgCl₂, 50 mM NaCl, 1 mM DTT, 10% Glycerol, 4 u/μl Protector RNAse inhibitor (Roche)). Control experiments were performed with dialysis buffer only or control proteins—Flag-GFP or GST-Flag-HA, dissolved in dialysis buffer at the highest protein concentration in the particular experiment. After 30 min on ice, the sample was loaded onto a 5% 37:1 acrylamide (Bio-Rad) gel in 0.5× TBE buffer (45 mM Tris-Borate, 1 mM disodium EDTA) and run for 90 min at 250 V at 4° C. Gels were exposed to phosphorimager screens. […]

GFP (control protein) = GFP (control protein) (UniProt P42212 P42212:1-238); experiment: EMSA; control protein; details: tags: Flag; label: radiolabelled
Procedure: RNA-EMSA assays with CBX7 protein were performed as follows. Labeled RNAs were produced with MEGAscript® T7 Transcription Kit (Life Technologies) and purified from 6% acrylamide TBE-urea gels. Labeled RNAs were prefolded in buffer TE+300 mM NaCl by incubating for 2 min at 95° C., followed by 20 min incubation on ice. Binding reactions were assembled with 20 μl of binding mix (13 mM Tris pH 8.0, 0.2 mM EDTA, 68.8 mM NaCl, 20% Glycerol, 0.2 mg/ml Yeast tRNA, 4 mM DTT, 4 μl 2500 cpm/μl RNA probe). LNA oligonucleotides were added to binding mix at final concentration of 8 μM and samples were pre-incubated on ice for 10 min. After pre-incubation, binding mix samples were combined with 60 μl of purified protein in dialysis buffer (50 mM Tris pH 7.4, 5 mM MgCl₂, 50 mM NaCl, 1 mM DTT, 10% Glycerol, 4 u/μl Protector RNAse inhibitor (Roche)). Control experiments were performed with dialysis buffer only or control proteins—Flag-GFP or GST-Flag-HA, dissolved in dialysis buffer at the highest protein concentration in the particular experiment. After 30 min on ice, the sample was loaded onto a 5% 37:1 acrylamide (Bio-Rad) gel in 0.5× TBE buffer (45 mM Tris-Borate, 1 mM disodium EDTA) and run for 90 min at 250 V at 4° C. Gels were exposed to phosphorimager screens. For validation of motif sequences, labeled RNA probes were produced with MEGAshortscript™ T7 Transcription Kit (Life Technologies) and gel purified using 15% TBE-urea gels (Life technologies) Similar RNA-EMSA conditions were applied except 8% 37:1 acrylamide (Bio-Rad) gels replaced 5% gels.

CBX7 [2] = molecular target: T1, CBX7; experiment: EMSA; low micromolar range, value only in figure; positive cooperativity; yeast tRNA, Mg2+, on ice; details: tags: C-terminal Flag-HA; baculovirus Sf9, anti-FLAG M2 purified; label: radiolabelled
Procedure: as §1

B1: Dcaf12l1 3'UTR EMSA probe (ssRNA)
RNA: UCAAAUAGAGGAGCUGGGGAUUAAAAAGAUAGGUCUGAUUAAAGGACUGUGCAGUUCAGAUAAAUAGAGAUAAUGGGAUGCCGUGCGGAUAGAUUGGUUUUCUCC
CBX7 [1]
  binding result: binds
GFP (control protein)
  binding result: no binding

B2: Dusp9 3'UTR EMSA probe (ssRNA)
RNA: GGCCACUUUGACUCGUGUAGACUCCUUCCUGCUUCUCUCACUAGGGCUUAGACUUCUUGGAACUGUAGGGUGUGAACCCAGAGAC
CBX7 [2]
  binding result: binds
GFP (control protein)
  binding result: no binding

B3: Calm2 3'UTR EMSA probe (ssRNA)
RNA: GUAGCUUUUAGGAACUGUCAGCAUGUUGUUGUUGAAGUGUGGAGCUGUAACUCUGCGUGGACUGUGGACAGUCAACAAUAUGUACUUAAAAGUUGCACUAUUGCAA
CBX7 [2]
  binding result: binds
GFP (control protein)
  binding result: no binding
